How the values were obtained:
[1] = tested on: Odc2_C19 (Odc2); conditions: 50 mM phosphate pH 5.5, 50 μM pyridoxal 5'-phosphate, 37°C; substrate 1-50 mM
Text: HPLC of o-phthalaldehyde-derivatized amine product (decarboxylation), Michaelis-Menten fit on Odc2_C19 (Odc2)

[2] = substrate: NCCCC[C@H](N)C(=O)O; assay: HPLC of o-phthalaldehyde-derivatized amine product (decarboxylation), Michaelis-Menten fit; format: biochemical, Paucilactobacillus wasatchensis; conditions: 50 mM phosphate pH 5.5, 50 μM pyridoxal 5'-phosphate, 37°C, substrate 1-50 mM
Text: HPLC of o-phthalaldehyde-derivatized amine product (decarboxylation), Michaelis-Menten fit on Odc1_Lw35 (Odc1)

Molecule: NCCCC[C@H](N)C(=O)O [L-Lysine]
- Km [1]: 20.2 mM

B1: Odc1_Lw35 (Odc1) (Paucilactobacillus wasatchensis) (protein)
chain: MKLLGIACSEEAQKYFKTTRDIIDAEKDSDFTDVAAIVLTEDDLDLINKIDETHFDIPVFLITNDAAKIDKDLRAKIYHLIDDDAKYTNMYDGEIEAAAVEYEKKMMPPFFEELQKYADEGNLSFTTPGHHAGKFFMRHPAGRWLVNYYGENLFRSDLSSSDVAVGDLLTHGGAPLSAEQHAAKVFNADKTYFVMNGTSTSNAIVTSAAVAPGDLVLFDRNNHKSSYISALENAGGIPIYLQTERNPFGFIGGISDAVFNEKHIRELIAKVDPKRAKEKRPIRLAIIELGTYDGSIYDARQVVDRIGSLCDYIQFDSAWVGYEQFIPMMKPSSPLLLDLGPEDPGILVTQSVHKQQAALSQGSQIHKKDKHIKGQKRYITHKRFNNAYMKYTSTSPFYPMYASLDVNAYLMEGKAGAEMWKNTVKLGIEARKRMLNESKLFTPFIPTVVNGKKWEDGDTEEMADNLDFWRFKKGESWHSFEGYADNQYYIDPLKVMFKTPGINMETGEYEDFGIPATILASYLREHGIVPEKSDLNSILFLLTPAETKTKLDNLVNLILRFEDLIEKDEKLENVLPHVYADNASRYRGYTIRQLCQEMHNFYKQSNAKKFQKELFQEATLPEQAMTPYAADKELIRNNAELIPLQDIVGRVALEGGLPYPPGIFVIAPGERWTESAQKYFLILQDGINQFPGFSPEIQGVYNEPQADGKVKAYGYVLDDESVIKKN
notes: full length (native 726 aa), C-terminal His-tag (pEG-His1, BamHI/SalI), E. coli BL21(DE3), Ni-TED purified
- Km [2]: 16.0 ± 1.8 mM
- kcat [2]: 3 ± 0.1 s⁻¹

Reference: article PMC8928434, “Production of Putrescine and Cadaverine by Paucilactobacillus wasatchensis” (Frontiers in Microbiology, 2022)
